Reference: patent US20070134221A1 (published 2007)

Tests used:
Assay in all cases: cell-based or functional assay
[1] = target: envelope glycoprotein of virus isolate HIV-1 JFRL (HIV-1 JFRL)
[2] = target: envelope glycoprotein of virus isolate HIV-1 UG270 (HIV-1 UG270)
[3] = target: envelope glycoprotein of virus isolate HIV-1 NL4-3 (HIV-1 NL4-3)
[4] = target: envelope glycoprotein of virus isolate HIV-1 94ZW103 (HIV-1 94ZW103)
[5] = target: envelope glycoprotein of virus isolate HIV-1 Case C 7/86 (HIV-1 Case C 7/86)
[6] = target: envelope glycoprotein of virus isolate HIV-1 CM.235 (HIV-1 CM.235)
[7] = target: envelope glycoprotein of virus isolate HIV-1 BZ162 (HIV-1 BZ162)
[8] = target: envelope glycoprotein of virus isolate HIV-1 DJ258 (HIV-1 DJ258)

B1: C52F peptide (peptide)
peptide: NHTTWMEWDREINNYTSLIHSLIEESQNLQEKNEQELLELDKWASLWNWFNIKIK
[1]
  IC50 (nM), Human PBMC Infectivity Assays: 5 nM
[2]
  IC50 (nM), Human PBMC Infectivity Assays: 68 nM
[3]
  IC50 (nM), Human PBMC Infectivity Assays: 23 nM
[4]
  IC50 (nM), Human PBMC Infectivity Assays: 4 nM
[5]
  IC50 (nM), Human PBMC Infectivity Assays: 49 nM
[6]
  IC50 (nM), Human PBMC Infectivity Assays: 11 nM
[7]
  IC50 (nM), Human PBMC Infectivity Assays: 2 nM
[8]
  IC50 (nM), Human PBMC Infectivity Assays: 9 nM

B2: C52L peptide (peptide)
peptide: NHTTWMEWDREINNYTSLIHSLFEESQNLQEKAEQELFELDKWASLWNWFNIKIK
[1]
  IC50 (nM), Human PBMC Infectivity Assays: 6 nM
[2]
  IC50 (nM), Human PBMC Infectivity Assays: 61 nM
[3]
  IC50 (nM), Human PBMC Infectivity Assays: 20 nM
[4]
  IC50 (nM), Human PBMC Infectivity Assays: 3 nM
[5]
  IC50 (nM), Human PBMC Infectivity Assays: 17 nM
[7]
  IC50 (nM), Human PBMC Infectivity Assays: 3 nM
[8]
  IC50 (nM), Human PBMC Infectivity Assays: 11 nM
